According to patent US12312641B2, “Sensitivity marker for antibody-drug conjugate” (priority 2018, dated 2025):

Tested on: patient-derived xenograft (PDX) model
Assay: Anti-tumor effect (TGI) in patient-derived xenograft models, 21 days after administration
Type: in vivo, nu/nu mice
Conditions: for TGI (%): 10 mg/kg tail vein, 21 days after administration; for Proportion of PDX models showing TGI of 75% or more: TGI at 21 days
Method: Mice: Female nu/nu mice (Envigo) aged 5-8 weeks were acclimatized under SPF conditions for 3 days or more prior to experimental use. Mice were fed with sterile solid feed (Teklad2919, Envigo) and given reverse osmosis membrane-treated water (containing 2 ppm chlorine).
Measurements and Calculation formula: long and short diameters of tumors were measured twice a week with an electronic digital caliper (CD-6PMX, Mitutoyo Corp.) and tumor volume (mm^3) was calculated using the following calculation formula: Tumor volume (mm^3)=0.52×Long diameter (mm)×[Short diameter (mm)]^2
Tumor fragments from each cancer patient were subcutaneously implanted into mice and passaged. The obtained tumors were used to subcutaneously implant tumor fragments, which were cut to approximately 5×5×5 mm^3, into the left abdomen of the female nu/nu mice, thereby each patient-derived xenograft (PDX) model was created. Mice were randomly grouped when the mean transplanted tumor volume reached 150 to 300 mm^3 (Day 0). On the same day as grouping, the antibody-drug conjugate (1) was administered into the tail vein at a dose of 10 mg/kg. A formulation buffer was similarly administered at a volume of 10 mL/kg as a negative control. Tumor growth inhibition rates (TGI (%)) were calculated according to the following calculation formula using each tumor volume 21 days after administration (Table 1). Tumor growth inhibition rate (%)=100×(1−Tf/mean Cf) • Tf: tumor volume 21 days after administration of antibody-drug conjugate (1) • mean Cf: arithmetic mean tumor volume 21 days after administration in negative control group mice
Data on the amount of gene expression in each PDX model used in Example 2 were obtained and normalized at Champions Oncology, Inc., thereby a RPKM value was obtained. To the RPKM value, 1 was added, and the sum was transformed to a logarithmic (log2) to obtain a log2[RPKM+1] value (Table 2). The log2[RPKM+1] value was used to analyze the relationship between the anti-tumor activity of antibody-drug conjugate (1) in each PDX model (Table 1) and the amount of expression of the hTROP2 gene and the SLFN11 gene. […] When TGI was 80% or more, the prediction rate decreased to an order of 60% only when the log2[RPKM+1] value of the hTROP2 gene exceeded 7.5 and the log2[RPKM+1] value of the SLFN11 gene exceeded 1.0 and was less than or equal to 2.

B1: antibody-drug conjugate (1): humanized anti-hTROP2 antibody (SEQ ID NO: 1 residues 20-470, SEQ ID NO: 2 residues 21-234) conjugated to the exatecan-derivative drug-linker via a thioether bond (conjugate, chains of the INN, looked up)
VH: QVQLVQSGAEVKKPGASVKVSCKASGYTFTTAGMQWVRQAPGQGLEWMGWINTHSGVPKYAEDFKGRVTISADTSTSTAYLQLSSLKSEDTAVYYCARSGFGSSYWYFDVWGQGTLVTVSS
VL: DIQMTQSPSSLSASVGDRVTITCKASQDVSTAVAWYQQKPGKAPKLLIYSASYRYTGVPSRFSGSGSGTDFTLTISSLQPEDFAVYYCQQHYITPLTFGQGTKLEIK
modifications: exatecan-derivative drug-linker
PDX model #1, Breast
  TGI (%): 98.1%
PDX model #2, Lung
  TGI (%): 77.3%
PDX model #3, Cholangiocarcinoma
  TGI (%): 48.0%
PDX model #4, Pancreatic
  TGI (%): 48.5%
PDX model #5, Colorectal
  TGI (%): 65.0%
PDX model #6, Breast
  TGI (%): 95.5%
PDX model #7, Breast
  TGI (%): 94.7%
PDX model #8, Head and neck
  TGI (%): 55.6%
PDX model #9, Head and neck
  TGI (%): 99.1%
PDX model #10, Lung
  TGI (%): 97.7%
PDX model #11, Lung
  TGI (%): 95.4%
PDX model #12, Breast
  TGI (%): 95.8%
PDX model #13, Lung
  TGI (%): 70.0%
PDX model #14, Breast
  TGI (%): 90.1%
PDX model #15, Cholangiocarcinoma
  TGI (%): 61.2%
PDX model #16, Colorectal
  TGI (%): 52.7%
PDX model #17, Breast
  TGI (%): 62.6%
PDX model #18, Lung
  TGI (%): 18.4%
PDX model #19, Lung
  TGI (%): 50.3%
log2[RPKM+1]: hTROP2 >6.5, SLFN11 >1, 10 models
  Proportion of PDX models showing TGI of 75% or more: 60%
log2[RPKM+1]: hTROP2 >6.5, SLFN11 >2, 6 models
  Proportion of PDX models showing TGI of 75% or more: 83%
log2[RPKM+1]: hTROP2 >6.5, SLFN11 >3, 3 models
  Proportion of PDX models showing TGI of 75% or more: 100%
log2[RPKM+1]: hTROP2 >6.5, SLFN11 All models, 15 models
  Proportion of PDX models showing TGI of 75% or more: 47%
log2[RPKM+1]: hTROP2 >7.0, SLFN11 >1, 9 models
  Proportion of PDX models showing TGI of 75% or more: 67%
log2[RPKM+1]: hTROP2 >7.0, SLFN11 >2, 6 models
  Proportion of PDX models showing TGI of 75% or more: 83%
log2[RPKM+1]: hTROP2 >7.0, SLFN11 >3, 3 models
  Proportion of PDX models showing TGI of 75% or more: 100%
log2[RPKM+1]: hTROP2 >7.0, SLFN11 All models, 11 models
  Proportion of PDX models showing TGI of 75% or more: 55%
log2[RPKM+1]: hTROP2 >7.5, SLFN11 >1, 6 models
  Proportion of PDX models showing TGI of 75% or more: 83%
log2[RPKM+1]: hTROP2 >7.5, SLFN11 >2, 4 models
  Proportion of PDX models showing TGI of 75% or more: 100%
log2[RPKM+1]: hTROP2 >7.5, SLFN11 >3, 2 models
  Proportion of PDX models showing TGI of 75% or more: 100%
log2[RPKM+1]: hTROP2 >7.5, SLFN11 All models, 8 models
  Proportion of PDX models showing TGI of 75% or more: 63%
log2[RPKM+1]: hTROP2 >8.0, SLFN11 >1, 5 models
  Proportion of PDX models showing TGI of 75% or more: 80%
log2[RPKM+1]: hTROP2 >8.0, SLFN11 >2, 3 models
  Proportion of PDX models showing TGI of 75% or more: 100%
log2[RPKM+1]: hTROP2 >8.0, SLFN11 >3, 2 models
  Proportion of PDX models showing TGI of 75% or more: 100%
log2[RPKM+1]: hTROP2 >8.0, SLFN11 All models, 7 models
  Proportion of PDX models showing TGI of 75% or more: 57%
log2[RPKM+1]: hTROP2 All models, SLFN11 >1, 13 models
  Proportion of PDX models showing TGI of 75% or more: 54%
log2[RPKM+1]: hTROP2 All models, SLFN11 >2, 9 models
  Proportion of PDX models showing TGI of 75% or more: 67%
log2[RPKM+1]: hTROP2 All models, SLFN11 >3, 5 models
  Proportion of PDX models showing TGI of 75% or more: 80%
log2[RPKM+1]: hTROP2 All models, SLFN11 All models, 19 models
  Proportion of PDX models showing TGI of 75% or more: 47%
log2[RPKM+1]: hTROP2 exceeded 7.5 and SLFN11 exceeded 1.0 and less than or equal to 2
  Prediction rate when TGI was 80% or more: ~60%
log2[RPKM+1]: hTROP2 exceeds 7.5 and SLFN11 exceeds 2.0, or hTROP2 exceeds 6.5 and SLFN11 exceeds 3.0
  Proportion of animal models showing TGI of 75% or more: 100%
